Laboratory results: article PMC7335425 (Cell, 2020)
Each block holds one substance with its values, some of them ahead of it.

Columns and labels:
Assay in all cases: negative stain EM
[1] = biological target: MCE protein with six MCE domains from Pseudomonas aeruginosa (Pseudomonas aeruginosa)
[2] = biological target: LetB ΔPLL2 mutant, TM helix deleted (E. coli) (UniProt P76272)
[3] = biological target: LetB ΔPLL3 mutant, TM helix deleted (E. coli) (UniProt P76272)
[4] = biological target: LetB six-ring truncation mutant (ring 6 removed), TM helix deleted (E. coli) (UniProt P76272)

Substance: MCE protein with six MCE domains from Pseudomonas aeruginosa (natural protein)
stoichiometry N [1]: 6

stoichiometry N [2]: 6
Substance: LetB ΔPLL2 mutant, TM helix deleted (from UniProt P76272 43-877) (domain or fragment)

stoichiometry N [3]: 6
Substance: LetB ΔPLL3 mutant, TM helix deleted (from UniProt P76272 43-877) (domain or fragment)

stoichiometry N [4]: 6
Substance: LetB six-ring truncation mutant (ring 6 removed), TM helix deleted (from UniProt P76272 43-877) (domain or fragment)
